Results on 2 molecules are retold here after patent publication US20240181006A1, “POLYPEPTIDES BINDING ADAMTS5, MMP13 AND AGGRECAN” (Merck Patent GmbH, priority 2017, published 2024).

In test [1] the target is recombinant bovine Aggrecan G1-IGD-G2 (bovine) (UniProt P13608). In words: periplasmic extract ELISA on Bov G1-IGD-G2.
The target in test [2] is recombinant rat Aggrecan G1-IGD-G2 (rat) (UniProt P07897). Nature of the test: periplasmic extract ELISA on Rat G1-IGD-G2.
The target of test [3] is recombinant cynomolgus Aggrecan G1-IGD-G2 (cynomolgus). In words: periplasmic extract ELISA on Cy G1-IGD-G2.
Test [4] addresses recombinant human Aggrecan G1-IGD-G2 (human) (UniProt P16112). Nature of the test: periplasmic extract ELISA on Hu G1-IGD-G2.
Test [5] has as its target recombinant dog Aggrecan G1-IGD-G2 (dog) (UniProt Q28343). In words: periplasmic extract ELISA on Dog G1-IGD-G2.
Test [6] deals with bovine ADAMTS5 (bovine) (UniProt Q9TT92). Nature of the test: SPR (Biacore T100), ADAMTS5 immobilized on CM5, 100 nM ISVD, Experiment 3.

B1: anti-Aggrecan ISVD 114F08 (VHH)
VHH: EVQLVESGGGLVQAGGSLRLSCAASGSTFIINVVRWYRRTPGKQRELVATISSGGNANYVDSVRGRFSISRDGAKNAVDLQMNGLKPEDTAVYYCNVPTTHYGGVYYGPYWGQGTLVTVSS
As for B1, the OD 450 nm in test [1] was found to be 1.18 OD 450 nm; in test [2] it was 2.05 OD 450 nm; in test [3], 2.32 OD 450 nm; in test [4], 2.38 OD 450 nm; in test [5], 1.9 OD 450 nm.

B2: anti-ADAMTS5 ISVD 02F03 (VHH)
VHH: EVQLVESGGGVVQPGGSLRLSCAASGRTVSSYAMGWFRQAPGKEREFVAGISRSAERTYYVDSLKGRFTISRDNSKNTVYLQMNSLRPEDTALYYCAADLDPNRIFSREEYAYWGQGTLVTVSS
The molecule B2 gave a koff in test [6] of 4.3e-05 s⁻¹.
